US5262318

Tested on: SphI restriction endonuclease (recombinant, NEB#808 / pEGsph50-2; gene within SEQ ID NO:2) (Streptomyces phaeochromogenes)
Assay: cleavage_in_vitro
Details: 150 units, 4 h, 37 C; nonspecific endonuclease control

phiX174 RFI DNA
activity (% converted to RF II): < 25
